The values below are quoted from earlier work in patent publication US20250319161A1, “IMPROVED METHODS OF TREATING DISEASES RESULTING FROM A MALADAPTED STRESS RESPONSE” (priority 2021, published 2025).

pEC50, pKi: −log10 of the molar value. Ends that are not written are not given here.

Series [1] concerns the target T1, CRFR2 (Homo sapiens, UniProt Q13324).
T1 sequence (Q13324 1-411): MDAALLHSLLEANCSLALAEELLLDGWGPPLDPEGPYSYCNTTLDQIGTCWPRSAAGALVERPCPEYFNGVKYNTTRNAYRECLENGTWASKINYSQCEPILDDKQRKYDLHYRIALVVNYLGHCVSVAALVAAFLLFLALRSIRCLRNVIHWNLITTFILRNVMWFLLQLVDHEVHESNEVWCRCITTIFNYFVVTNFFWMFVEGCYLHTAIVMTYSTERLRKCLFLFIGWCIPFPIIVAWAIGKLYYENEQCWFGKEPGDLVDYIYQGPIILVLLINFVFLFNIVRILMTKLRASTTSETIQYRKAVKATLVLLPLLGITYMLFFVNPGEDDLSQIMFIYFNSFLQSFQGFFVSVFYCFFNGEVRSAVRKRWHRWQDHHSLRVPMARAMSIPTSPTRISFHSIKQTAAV
The settings on record: read-out: inhibitory constant at CRFR2.

The target of series [2] is T1, CRFR2. The settings on record: in vitro.
Series [3] has as its target T1, CRFR2. The note with it: in vitro. The source holds these as a separate data set.

In the case of “endogenous urocortin 1, DNPSLSIDLTFHLLRTLLELARTQSQRERAEQNRIIFDSV-NH2 (DNPSLSIDLTFHLLRTLLELARTQSQRERAEQNRIIFDSV-NH2; UniProt P55089 83-122, looked up) [UCN1]”, the pKi in series [1] was 9.40.
As to “endogenous urocortin 2, IVLSLDVPIG LLQILLEQAR ARAARBQATT NARILARV-NH2 [UCN2]”, in series [1], the pKi is 8.96. In addition, the “concentration achieving maximal CRFR2 endocytosis” value in series [2] is 100 nmol. Moreover, in series [3], the negative-log EC50 (pEC50) is 8.37.

A word on the pEC50: it is −log10 of the EC50, conventionally taken in molar units.
